# The supplement of paper PMC10126150
# ± gives the standard deviation of the averaged measurements.
# System: ATP
# Test: switch fluorescence ratio, 500 uM ATP over buffer (Cy3 cluster intensity, sum of 5 cycles each) (fold (ratio)); higher = stronger signal-on switching upon ATP binding; sequences stand for … in TCGTCGGCAGCGTCAGATGTGTATAAGAGACAGTTTTTTTTTTTTTTTTTTTTTTTTT…TC
# Details: aptamer strand: ATP DNA aptamer (quencher-CACCTGGGGGAGTATTGCGGAGGAAGG + anchor), 100 nM annealed; ATP concentration: 500 uM
# Procedure, shortened: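 Clusters carrying Cy3-labelled switching strands on a modified Illumina MiSeq flow-cell were annealed to 100 nM quencher-labelled ATP aptamer and imaged in selection buffer. They were imaged again after 15 min with 500 uM ATP at 22 °C, over five buffer/ATP cycles with NaOH stripping and re-annealing in between. For each cluster, the fluorescence ratio is the summed Cy3 intensity of the target cycles divided by that of the buffer cycles, averaged per switch-domain sequence. Clusters outside 100-1000 RFU were left out.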
# 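Further: ATP exposure 15 min at 22 °C before imaging.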
sequence,measurement,value
GATTGTACTC,switch fluorescence ratio,1.022 ± 0.01
CGGGGAAGGG,switch fluorescence ratio,1.005 ± 0.0032
GATCTGGTTT,switch fluorescence ratio,0.998 ± 0.056
CTTTTAGGA,switch fluorescence ratio,0.995 ± 0.021
GGGGCGGGTG,switch fluorescence ratio,0.993 ± 0.039
TCATTTATTA,switch fluorescence ratio,1.04 ± 0.023
TAGTGAGGCG,switch fluorescence ratio,0.926 ± 0.0095
AGAGATTGCC,switch fluorescence ratio,1.0678 ± 0.0008
GGGGGGGACT,switch fluorescence ratio,1 ± 0.034
GGGGTAAAAA,switch fluorescence ratio,1.01 ± 0.018
AGTAAGGGCA,switch fluorescence ratio,1.01 ± 0.016
GAGTAGCGGA,switch fluorescence ratio,0.999 ± 0.042
TAGAGTCCAT,switch fluorescence ratio,1.02 ± 0.019
TCGGTAATAT,switch fluorescence ratio,1.08 ± 0.16
GAGGATTAGA,switch fluorescence ratio,0.988 ± 0.015
TGTTATTGAA,switch fluorescence ratio,0.992 ± 0.046
TATTTGTCGG,switch fluorescence ratio,1.0172 ± 0.00047
AGGTGCTTAC,switch fluorescence ratio,1.04 ± 0.037
TCTGGTGTGG,switch fluorescence ratio,0.994 ± 0.053
TTTTAGTGGC,switch fluorescence ratio,1.02 ± 0.029
ATGTTGTTAC,switch fluorescence ratio,1.01 ± 0.025
AGTTGTATT,switch fluorescence ratio,0.967 ± 0.022
TGAATTTGTT,switch fluorescence ratio,0.995 ± 0.038
TTTTGTGCTG,switch fluorescence ratio,0.984 ± 0.052
GGGATTAAAG,switch fluorescence ratio,1.02 ± 0.017
AAAACGAGTC,switch fluorescence ratio,1.07 ± 0.031
TGGGGGCGGG,switch fluorescence ratio,1 ± 0.033
ACTCGGGACG,switch fluorescence ratio,0.9715 ± 0.0067
TGATAATCTT,switch fluorescence ratio,0.99 ± 0.028
GATAGTGTAG,switch fluorescence ratio,1.03 ± 0.0034
CGGGGGGGCT,switch fluorescence ratio,0.997 ± 0.026
TCACAGATGG,switch fluorescence ratio,1.02 ± 0.036
TATTAGTTGC,switch fluorescence ratio,1 ± 0.034
AAGAAACTTC,switch fluorescence ratio,1.007 ± 0.0024
CGTTTAACAC,switch fluorescence ratio,0.997 ± 0.02
ATAGGTATCT,switch fluorescence ratio,0.988 ± 0.019
TTGCTTGGAA,switch fluorescence ratio,0.992 ± 0.026
ATTTAGCCGC,switch fluorescence ratio,1.02 ± 0.017
AGAGGGGGG,switch fluorescence ratio,0.99 ± 0.017
GTCTTTTGTA,switch fluorescence ratio,0.983 ± 0.04
TAGGCGGTTT,switch fluorescence ratio,0.9641 ± 0.00067
TGACTGGGCG,switch fluorescence ratio,1.0063 ± 0.00065
CGCTTATTAA,switch fluorescence ratio,1.072 ± 0.0033
CCGGGGTGTA,switch fluorescence ratio,1.32 ± 0.36
CGGTGTGGGG,switch fluorescence ratio,1.01 ± 0.032
GTTGTTTGTA,switch fluorescence ratio,0.971 ± 0.021
GGAGGGGCGT,switch fluorescence ratio,0.993 ± 0.023
GCGCTAGGGC,switch fluorescence ratio,1 ± 0.014
TAGTAGTGAG,switch fluorescence ratio,0.985 ± 0.013
TAATTTATCA,switch fluorescence ratio,1.01 ± 0.035
ATTTGGATGC,switch fluorescence ratio,1.01 ± 0.042
TATAAACCGC,switch fluorescence ratio,1.22 ± 0.11
TCGGGGCCGC,switch fluorescence ratio,0.981 ± 0.11
TTCAATCATG,switch fluorescence ratio,0.988 ± 0.011
TTGGGGAGGA,switch fluorescence ratio,0.998 ± 0.044
CGTTTTTAAA,switch fluorescence ratio,1.02 ± 0.04
TGTGGGCGC,switch fluorescence ratio,1.01 ± 0.098
AAGGCAGGCG,switch fluorescence ratio,0.977 ± 0.096
TGCAAAGATT,switch fluorescence ratio,0.99 ± 0.016
TCATAATTGG,switch fluorescence ratio,1.005 ± 0.0045
AGGAGTGGTA,switch fluorescence ratio,0.999 ± 0.013
AGGGAGCTGG,switch fluorescence ratio,0.998 ± 0.013
TGGTATTGGT,switch fluorescence ratio,0.9655 ± 0.0041
TTAAAGCACG,switch fluorescence ratio,1.07 ± 0.023
CTGATGGGGA,switch fluorescence ratio,0.961 ± 0.033
ATTTTTCTGA,switch fluorescence ratio,1 ± 0.019
AAAGTCAGTA,switch fluorescence ratio,0.9818 ± 0.007
GATCAAACGG,switch fluorescence ratio,1 ± 0.036
TATGGGGATG,switch fluorescence ratio,1 ± 0.024
CTTTATGTTT,switch fluorescence ratio,0.991 ± 0.015
GACCTAAGAC,switch fluorescence ratio,1.13 ± 0.053
CGGGGTTGGC,switch fluorescence ratio,1.02 ± 0.061
CTGGTGTGGA,switch fluorescence ratio,1.034 ± 0.0058
ATTGCCGGGA,switch fluorescence ratio,1.01 ± 0.0089
TGTTGGTGGG,switch fluorescence ratio,0.989 ± 0.024
TATATTCGCT,switch fluorescence ratio,0.988 ± 0.012
GCAAAAGGGA,switch fluorescence ratio,1.01 ± 0.013
TAAGTGGGGC,switch fluorescence ratio,0.957 ± 0.085
GGTATTGGGC,switch fluorescence ratio,0.9875 ± 0.0056
AAGGGGCTTT,switch fluorescence ratio,1.01 ± 0.025
TCTGTAGGTT,switch fluorescence ratio,1.03 ± 0.024
CGGGTCCATT,switch fluorescence ratio,0.981 ± 0.0079
GAAATAAAAG,switch fluorescence ratio,0.9796 ± 0.0064
GGTCAGGGGC,switch fluorescence ratio,1.08 ± 0.017
AAAATACGGG,switch fluorescence ratio,1.21 ± 0.21
TCGGGACGTT,switch fluorescence ratio,1.02 ± 0.044
TTAGGGGCAA,switch fluorescence ratio,1.04 ± 0.073
AGAGAGGAGG,switch fluorescence ratio,0.997 ± 0.066
TTTATAATTT,switch fluorescence ratio,0.981 ± 0.018
TATATACGGG,switch fluorescence ratio,1.05 ± 0.032
AAAATCTTAG,switch fluorescence ratio,1 ± 0.036
ATAGTAGCTA,switch fluorescence ratio,0.9764 ± 0.0016
GGTCGAGGGT,switch fluorescence ratio,1.022 ± 0.0041
ATGAGGTTAC,switch fluorescence ratio,0.988 ± 0.074
GGCGTTCATG,switch fluorescence ratio,0.9968 ± 0.0081
TGCAAACCTA,switch fluorescence ratio,1.0241 ± 0.00058
TTACGTCATA,switch fluorescence ratio,1.67 ± 0.95
GCAATTAAAT,switch fluorescence ratio,0.996 ± 0.036
AAGCGAGGTC,switch fluorescence ratio,1.05 ± 0.021
GCGAAACAGG,switch fluorescence ratio,1.11 ± 0.06
CGCTTTGGCG,switch fluorescence ratio,0.959 ± 0.061
ATTTAAGAAG,switch fluorescence ratio,0.99 ± 0.032
CTATTGGGTT,switch fluorescence ratio,1.02 ± 0.016
ATTCTGTTTT,switch fluorescence ratio,0.986 ± 0.028
TAGATGTGTT,switch fluorescence ratio,1.01 ± 0.023
GTTTGCCCTT,switch fluorescence ratio,1.06 ± 0.1
GGTTGCAGCT,switch fluorescence ratio,0.975 ± 0.018
TGACAGTAAC,switch fluorescence ratio,1.25 ± 0.25
CGGGGGGGCG,switch fluorescence ratio,1.03 ± 0.074
CTCGGGGGAG,switch fluorescence ratio,0.991 ± 0.026
GAATCTCGGA,switch fluorescence ratio,1.018 ± 0.0018
TGTAGAGGTG,switch fluorescence ratio,1.09 ± 0.022
AAGGTTGGGT,switch fluorescence ratio,0.984 ± 0.031
ATTAGGTCTA,switch fluorescence ratio,1 ± 0.014
AGTAGAGGAC,switch fluorescence ratio,1.01 ± 0.045
ATTTTAGTTT,switch fluorescence ratio,1 ± 0.016
TTCTGCGTGC,switch fluorescence ratio,1.85 ± 1.5
TTGAAATTGG,switch fluorescence ratio,0.99 ± 0.031
GGGTATCTTG,switch fluorescence ratio,1 ± 0.003
GTTTTATGGA,switch fluorescence ratio,0.983 ± 0.034
TTAGGCCGAG,switch fluorescence ratio,1.04 ± 0.022
GGTTGCCATA,switch fluorescence ratio,0.944 ± 0.025
GGTAGGTGGT,switch fluorescence ratio,0.98 ± 0.022
CACAATATGT,switch fluorescence ratio,1.07 ± 0.078
ATAGTGGGGA,switch fluorescence ratio,1.04 ± 0.026
CTCCTTGTCG,switch fluorescence ratio,1.014 ± 0.0077
GGTTAAGGCG,switch fluorescence ratio,0.9569 ± 0.0079
TTGTAGGGTT,switch fluorescence ratio,1.02 ± 0.024
TGAGCAGCTG,switch fluorescence ratio,0.953 ± 0.058
TTAAAAACCT,switch fluorescence ratio,1.65 ± 0.62
TATCGTAGGG,switch fluorescence ratio,1 ± 0.022
GTTGGAGTGT,switch fluorescence ratio,0.9511 ± 0.0068
GTTGGGGTCA,switch fluorescence ratio,0.988 ± 0.011
GCACGTGCAG,switch fluorescence ratio,0.9955 ± 0.0041
TTGAGTTTGT,switch fluorescence ratio,0.977 ± 0.015
GGAAATTTTT,switch fluorescence ratio,0.973 ± 0.019
TTACAAGATT,switch fluorescence ratio,1.03 ± 0.0047
CGACTTTTAG,switch fluorescence ratio,0.959 ± 0.021
CGAGCAGTTA,switch fluorescence ratio,1.19 ± 0.074
TTGGTGGTT,switch fluorescence ratio,0.9809 ± 0.0089
CTCTGCAGTG,switch fluorescence ratio,3.7 ± 0.5
GGGGGTGTGA,switch fluorescence ratio,1.02 ± 0.017
TCGTTTTCCC,switch fluorescence ratio,1.08 ± 0.14
TTTTGTGTGC,switch fluorescence ratio,1.02 ± 0.022
TAAATTTAAT,switch fluorescence ratio,0.982 ± 0.034
TAGCGATGGG,switch fluorescence ratio,1.01 ± 0.017
GGGCTATTAT,switch fluorescence ratio,1.02 ± 0.081
AGGGTCCTAC,switch fluorescence ratio,1.02 ± 0.047
TCTTTTTCCT,switch fluorescence ratio,1.045 ± 0.0054
ATAGACACGC,switch fluorescence ratio,1.034 ± 0.0078
TGGCAGTCTA,switch fluorescence ratio,0.979 ± 0.018
GTTAGGTGGC,switch fluorescence ratio,0.931 ± 0.021
TTATATTGCG,switch fluorescence ratio,0.9885 ± 0.0014
